Experimental findings from PMC10711660, “An extended Tudor domain within Vreteno interconnects Gtsf1L and Ago3 for piRNA biogenesis in Bombyx mori” (The EMBO Journal, 2023) are described below.

To fix the notation:
B1: GST‐BmVreteno‐L (natural protein, Bombyx mori)
chain: MSNHSRPQRRREWDPMRDDFNEHTYDVQYADDNAGEQVQLDHTKLYIINIPRGLSEDGIRAAFSKHGKVLSARLSKNPNKRFAIVQFETASEAKLAMMKMNGSEPLNLKISIAHKTIRKTQHDNKDRNYSTSRNGHCSRDEASSISSKGWNMRNLDDVMNNDEIDEIDDMIHEDHDDNLDLELDMLTLKQLKIKEEQLMCKRRLLLRHAEKRQVAPHSSAGRSVLPDGRIVVRNNANETDSAEVEPSFAGAGSESLKTPGLERNASRQCVKCGAPADWYCSRCAITPYCSQTCQTRDWTERHKSVCHYLAPLKTAGGFEAEATSSKSVSNSTPMRSSHSPPTKQQRGEADETDNKAKNIQEPRQNYHRPSNSGPNKNIPGKNQDPRRPATSREAIEEETEERGARNPKPAEATKDKHHPMNPVTFQRRQLKSNPVVDAQPAPREQQQPAATRAPEASPTEQRESTRRTLVPDRCLIDSLSEGDVVLVSVELKASECCTKQGGYVCLSMHEKYESDYQKLCEDYVLDCEADSDEYKIITGDTFSYLSPEDGGWYRARALNTTMAALLDGSKVVYLRMNDKVKKLPAKYSGIPEFCCVLNADVEVGLNLKCSLLSKTPNGFKVTLENVETEANVGEGEITRWIPEVDYPPPVKNVPVQRSVEIPEVPRPEIKNKSRVILVDATDVQRVFVRPADTRSQKAFDNILQDVLLYGTTAEPLKEPPSKGQTVVSKYTDNLHYRALCKRTSVNKNKYLLEYIEYGNIEITQLNRLYPCPEHLSVTSLASLTSHVQLDTTVGELTPRALEYIETIKEEEMILTLSSGGDTAQSGAALVNLTLVKNNDNVNKRIEELCTPEWKKLELKGVDVIETERLMYGTALDYIELPAAPFDLQVLDEVGLDSGNISGCPTNSDYVRYVMTKLPARMREYCESEFGRQPYLPAAEELCIAQLPPSSEWHRAVVLEQILGPGGGTARVLFVDHGNVAEVPVSSLRKMLAEFVTDLPAVACQIVIEDFPKQATAEMLAKARRFMSGPDKARAAQLPVRGCDKQDVGIYAIRVPELLEAMTE
notes: BmVreteno Long isoform, Bombyx mori; pGEX-6p vector, 3C site between GST and BmVreteno; the purified protein was associated with nucleic acids; also called GST‐3C‐BmVreteno; full‐length BmVreteno‐L; source: E. coli BL21 DE3 codon+, purified (GSTrap, gel filtration); not shown: GST, N-terminal, kept
B2: His‐BmGtsf1L (natural protein, Bombyx mori)
chain: MDDPFVSCPYNPIHRVPRSRLQRHIVKCEWINPTMIACPYNATHRYTQEDMKFHVLNCPSKTSIFPIEKPPKTVASITTPKIILQKEYLPETDPNHEIWDD
notes: BmGtsf1L, Bombyx mori; pET28a, thrombin site after the His6 tag; also called His6‐thrombin‐BmGtsf1L; recombinant BmGtsf1L; source: E. coli BL21 DE3 codon+, purified (HisTrap, gel filtration); not shown: His6, N-terminal, kept

Data set [1] concerns the molecule itself. Description: SEC; gel filtration of purified GST-BmVreteno-L and -S (Superdex 75 and 200 16/60 pg, 25 mM Na-Hepes, 300 mM NaCl, 10% glycerol, pH 7.4); protein associated with nucleic acids.
The data set “GST‐BmVreteno‐L” concerns the target B1. Put plainly: pull-down; GSH pull-down: 5 μM GST-BmVreteno (or fragment, variant) on Glutathione Sepharose 4B with 10 μM His-BmGtsf1L, 2 h 4°C, PBS with 0.1% Triton-X100; SDS-PAGE, Coomassie (Fig 5G also anti-His Western blot). To be noted: both partners purified.

On to B1, for which the binding result in data set [1] is “binds”.
In the case of B2, the binding result with GST‐BmVreteno‐L is “binds”.
